Measurements: paper PMC6774396 (Frontiers in Immunology, 2019)
Where a chain is given by its changes, count along the chain named. Numbers in names are those of the source.

Columns and labels:
[1] = system: ΔM-N L-selectin-GFP/RFP in THP-1 cells; experiment: Phos-tag Western blot of L-selectin serine phosphorylation; format: cell-based, human; conditions: 100 nM PMA, 15 min; phos-tag gel
ERM = conditions: biochemically and in cells; cited from earlier work
Source text: The cytoplasmic tail of L-s ...

THP-1 cells = experiment: Antibody-mediated clustering (AMC) of L-selectin-GFP/RFP, FLIM/FRET; format: cell-based, human; conditions: DREG56 plus secondary antibody
Source text: (A) Schematic representation of the cleavage site, transmembrane domain (TMD), and cytoplasmic tail of human L-selectin. Red underlined region of the cleavage site denotes the amino acids that are deleted in ΔM-N L-selectin. […] Red arrow points to the position of the cut site of the L-selectin cleavage domain. (B) Cells expressing matched levels of L-selectin-GFP/RFP in the following forms: WT, ΔM-N, SSAA, ΔM-N^SSAA, and R357A were subjected to AMC using Alexa Fluor 647-conjugated DREG56 or isotype-matched control, followed by goat anti-mouse secondary antibody (see Materials and Methods for more detail). Cells were plated onto poly-L-lysine-coated coverslips and prepared for FLIM/FRET analysis (see materials and methods). FLIM was used to measure the FRET efficiency between the GFP/RFP donor/acceptor pairs as a direct function of cytoplasmic tail clustering […]. At least 45 individual cells were analyzed over 3 independent clustering assays. (C) Representative images are shown for each cell line. The lifetime of fluorescence (Lftm) is expressed in a pseudocolour scale from red (low lifetime with a very high probability of interaction) to blue (high lifetime with a very low probability of interaction). […] Cells were lysed directly in protein loading buffer (containing the reducing agent, dithiothreitol) and resolved onto standard (lower panel) or phos-tag (upper panel) polyacrylamide gels. Antibodies to GFP and RFP were used to, respectively, probe ΔM-N and ΔM-N^SSAA on Western blots. […] Statistics: One-Way ANOVA Tukey's multiple comparison test. **p ≤ 0.01; ***p ≤ 0.001; ****p ≤ 0.0001.
THP-1 cells were adjusted the night before AMC to a density of 0.5 ×10^6 cells per mL. On the same day, 13 mm diameter glass coverslips (thickness “1”) were placed into the base of a 24 well dish, spotted with 100 μL of poly-L-lysine (PLL) to immobilize according to manufacturer's instruction. On the day of the assay, THP-1 cells were counted and adjusted to a density of 1 ×10^6 per mL in 500 μL containing antibody labeling buffer (RPMI culture medium containing FcR block [Miltenyi Biotec]). Cells were labeled with 2 μg per mL DREG56 for 30 min at 4°C, followed by washing (by centrifugation at 300 g and resuspension) in ice cold culture media to remove excess unbound antibody and then incubated back in ice cold labeling buffer containing secondary antibody conjugated to Alexa Fluor […] (Thermo Fisher) for a further 30 min at 4°C. Cells were then washed twice in ice cold neat RPMI and resuspended to 100 μL of neat ice cold RPMI before 80 μL of the cell suspension was seeded onto 13 mm diameter glass coverslips (thickness = “1”), which were pre-coated with PLL-coated the night before. The seeded cells were placed into a humidified cell culture incubator at 37°C and 5% CO2 for 10 min to drive clustering. Adhered cells were flooded in excess 4% paraformaldehyde and fixed for 15 min at room temperature. Fixed coverslips were washed 3 times in PBS and then treated in 10 mg/mL of Sodium Borohydride dissolved in phosphate buffered saline for 10 min at room temperature (to eliminate autofluorescence and enhance signal to noise ratios). Coverslips were subsequently washed in PBS to remove sodium borohydride and mounted using DAKO mounting medium.
FLIM measurement of FRET was performed with a multiphoton microscope system as described previously ([8], [23]). A Nikon TE2000E inverted microscope, combined with an in-house scanner and Chameleon Ti:Sapphire ultrafast pulsed multiphoton laser (Coherent Inc.), was used for excitation of GFP (at 890 nm). Fluorescence lifetime imaging capability was provided by time-correlated, single-photon counting electronics (SPC 700; Becker & Hickl). A 40 × objective (NA 1.3) was used throughout (CFI60 Plan Fluor; Nikon), and data were acquired at 500 ± 20 nm through a bandpass filter (35–5040; Coherent Inc.). […]

[2] = system: THP-1 cells over TNF-α-activated HUVEC; experiment: Pseudopod protrusion scoring in TEM under flow; format: cell-based, human
Experimental: (A) The number of protrusions formed over this period was scored as: zero, one, two, or >2. (B) The percentages of cells bearing these protrusions were scored at specific time points: 6 min (blue bars), 15 min (green bars), or 25 min (red bars). Supplementary Videos 2, 3, 4 provide examples of cells producing a range of protrusions as TEM proceeds. Data represent SEM of 3 fields of view per flow experiment, conducted on three separate occasions, and at least 180 cells analyzed per group. Values of the vertical lines indicate the differences in protrusion number (specifically “zero” and “two”) corresponding to each of the cell lines, for which statistical significance is shown in Table 1.
All flow experiments were performed using a 35 mm diameter Glycotech parallel plate flow chamber. Perfusion experiments were performed at 1.5 dyn/cm^2 using a Harvard Apparatus 2000 PHD syringe pump. Perfusion media consisted of: RPMI supplemented with L-glutamine, 10% FCS, 1% penicillin/streptomycin, 50 μM β-mercaptoethanol, and 25 mM HEPES. Human Umbilical Vein Endothelial Cells (HUVEC–Lonza) were seeded onto 35 mm diameter glass coverslips (no. 1 thickness; VWR) that were pre-coated with 10 μg/mL fibronectin (37°C for at least 1 h). Before each perfusion assay, HUVEC were stimulated overnight (16 h) with 10 ng/mL carrier-free recombinant human TNF-α (R&D Systems). Each perfusion assay was performed by injecting a bolus of cells for 6 min, followed by just perfusion media (without cells) for the […]. THP-1 cells were perfused at a density of 0.5 ×10^6 cells per mL. THP-1 cells treated with 10 μM TAPI-0 required a preincubation time of 10 min at 37°C before perfusion over TNF-α-activated HUVEC. Note that 10 μM TAPI-0 was also supplemented in the perfusate. Stills were acquired once every 10 seconds using 10 × objective lens.

calmodulin = conditions: transmigrating pseudopods; ref previously published (no number given at b28; b24 cites ref 8); cited from earlier work

## CCCCCCCCCCCCCC(=O)O[C@@H]1[C@@H](C)[C@@]2(O)[C@@H](C=C(CO)C[C@]3(O)C(=O)C(C)=C[C@@H]23)[C@@H]2C(C)(C)[C@]12OC(C)=O [PMA, phorbol myristate acetate]
[1]
  serine phosphorylation of L-selectin: serine phosphorylation was detected only when cells were robustly stimulated with the phorbol ester, PMA

B1: R357A: ERM-binding mutant of L-selectin, arginine 357 mutated to alanine (protein)
chain: WTYHYSEKPMNWQRARRFCRDNYTDLVAIQNKAEIEYLEKTLPFSRSYYWIGIRKIGGIWTWVGTNKSLTEEAENWGDGEPNNKKNKEDCVEIYIKRNKDAGKWNDDACHKLKAALCYTASCQPWSCSGHGECVEIINNYTCNCDVGYYGPQCQFVIQCEPLEAPELGTMDCTHPLGNFSFSSQCAFSCSEGTNLTGIEETTCGPFGNWSSPEPTCQVIQCEPLSAPDLGIMNCSHPLASFSFTSACTFICSEGTELIGKKKTICESSGIWSNPSPICQKLDKSFSMIKEGDYNPLFIPVAVMVTAFSGLAFIIWLARALKKGKKSKRSMNDPY
modifications: left off: eGFP (donor copy) or mCherry (acceptor copy, called RFP), C-terminal, kept
ERM
  L-selectin/ERM interaction: block L-selectin/ERM interaction
THP-1 cells
  change in FRET efficiency on AMC or versus comparator (in words): lacked any significant increase in FRET efficiency
THP-1 cells; 10 min at 37°C, GFP/RFP pair, at least 45 cells, 3 independent assays
  FRET efficiency after AMC: 2.47%

B2: S367A: L-selectin with Ser^367 mutated to alanine, GFP-tagged, expressed in THP-1 cells (protein, UniProt P14151 39-372, looked up, variant S367A)
L-selectin: B1 chain with A319R, S329A
modifications: C-terminal GFP tag
[2]; 6, 15 and 25 min of flow over TNF-α-activated HUVEC
  protrusive activity profile in TEM (in words): possessed the fewest protrusions over the recorded period, differing significantly from WT and S364A L-selectin-expressing cell lines
[2]; 15 min time point, mean of 3 fields of view per flow experiment, three occasions, at least 180 cells per group, significance ** S367A p ≤ 0.01 (Tukey), % printed
  cells with 2 protrusions: 13.7%
[2]; 15 min time point, mean of 3 fields of view per flow experiment, three occasions, at least 180 cells per group, significance *** S367A p ≤ 0.001, ** SSAA p ≤ 0.01 (Tukey), % printed
  cells with 0 protrusions: 34.4%
calmodulin
  interaction of calmodulin with L-selectin: significantly reduced interaction of calmodulin
